According to patent publication US20250109187A1 (NOVAVAX, published 2025):

B1: NVX.324.6 (antibody, V domains shown)
VH: EVQLQQSGPELGKPGTSMKISCKASGYSFTGYTMNWVKQSHGKNLEWIGLINPYNGGTSYNQKFKDKATLTVDKSSSTAYMELLSLTSEDSAVYYCVREHYYYDSGYGGYYAMDYWGQGTSVTVSS
VL: QIVLSQSPAILSASPGDKVTMTCRASASVNYMYWYQQKPGSSPKPWIYATSNLASGVPARFSGSGSGTSYSLTISRVEAEDAAIYYCQQWSSNPYTFGGGTKLEIK
notes: also called mAb NVX.324.6
B2: NVX.62.12 (antibody, V domains shown)
VH: QVQLQQSGAELVRPGVSVKISCKGSGYTFTDYAMHWVKQSHAKSLEWIGVISTYSGDAYYNQKFKGKATVTVDKSSSTAYMELARLTSEDSAIYFCARNWDDYYAMDYWGQGTSVTVSS
VL: QIILSQSPAILSASPGERVTMTCRATSSVSYMHWYRQKPGSSPQPWIYATSNLASGVPARFSGSGSGTSYSLTISRVEAEDAATYYCQQWSGNPWTFGGGTKLEIK
notes: also called mAb NVX.62.12

Legend:
XBB.1.16 rS [1] = target: T1, XBB.1.16 rS (SARS-CoV-2 variant XBB.1.16, UniProt P0DTC2 14-1273); test: ELISA: rS coated, mAb titrated, anti-mouse HRP
FL.1.5.1 rS [2] = target: T2, FL.1.5.1 rS (SARS-CoV-2 variant FL.1.5.1, UniProt P0DTC2 14-1273); test: ELISA: rS coated, mAb titrated, anti-mouse HRP
XBB.2.3 rS [3] = target: T3, XBB.2.3 rS (SARS-CoV-2 variant XBB.2.3, UniProt P0DTC2 14-1273); test: ELISA: rS coated, mAb titrated, anti-mouse HRP
XBB.1.16.6 rS [4] = target: T4, XBB.1.16.6 rS (SARS-CoV-2 variant XBB.1.16.6, UniProt P0DTC2 14-1273); test: ELISA: rS coated, mAb titrated, anti-mouse HRP
EG.5.1 rS [5] = target: T5, EG.5.1 rS (SARS-CoV-2 variant EG.5.1, UniProt P0DTC2 14-1273); test: ELISA: rS coated, mAb titrated, anti-mouse HRP
[6] = target: T6, SARS-CoV-2 Omicron XBB.1.5 rS (SARS-CoV-2 variant XBB.1.5, UniProt P0DTC2 14-1273); test: ELISA: rS coated, mAb titrated, anti-mouse HRP
T6 construct: also called XBB 1.5 rS glycoprotein; XBB.1.5 Spike trimer

XBB.1.16 rS [7] = target: T1, XBB.1.16 rS
FL.1.5.1 rS [8] = target: T2, FL.1.5.1 rS
XBB.2.3 rS [9] = target: T3, XBB.2.3 rS
XBB.1.16.6 rS [10] = target: T4, XBB.1.16.6 rS
EG.5.1 rS [11] = target: T5, EG.5.1 rS
[12] = target: T6, SARS-CoV-2 Omicron XBB.1.5 rS

| Binder | EC50 (XBB.1.16 rS [1]) [µg/mL] | EC50 (FL.1.5.1 rS [2]) [µg/mL] | EC50 (XBB.2.3 rS [3]) [µg/mL] | EC50 (XBB.1.16.6 rS [4]) [µg/mL] | EC50 (EG.5.1 rS [5]) [µg/mL] | EC50 [6] [µg/mL] | IC50 (XBB.1.16 rS [7]) [µg/mL] | IC50 (FL.1.5.1 rS [8]) [µg/mL] | IC50 (XBB.2.3 rS [9]) [µg/mL] | IC50 (XBB.1.16.6 rS [10]) [µg/mL] | IC50 (EG.5.1 rS [11]) [µg/mL] | IC50 [12] [µg/mL] |
| --- | --- | --- | --- | --- | --- | --- | --- | --- | --- | --- | --- | --- |
| B1 | 0.027 | 0.014 | 0.028 | 0.021 | 0.018 | 0.03 | > 3 | > 3 | > 3 | > 3 | > 3 | > 3 |
| B2 | 0.044 | 0.021 | 0.067 | 0.063 | 0.029 | 0.056 | > 3 | > 3 | > 3 | > 3 | > 3 | > 3 |
